Here are results for 1 molecule from publication PMC7305327, “Repurposing type I–F CRISPR–Cas system as a transcriptional activation tool in human cells”.

In the data set the target is T1, PaeCascade (type I-F Csy complex: Csy1, Csy2, Csy3, Csy4 + crRNA) (Pseudomonas aeruginosa, UniProt Q02ML9;Q02MM0;Q02MM1;Q02MM2 1-434;1-327;1-342;1-187).
T1 sequence 1: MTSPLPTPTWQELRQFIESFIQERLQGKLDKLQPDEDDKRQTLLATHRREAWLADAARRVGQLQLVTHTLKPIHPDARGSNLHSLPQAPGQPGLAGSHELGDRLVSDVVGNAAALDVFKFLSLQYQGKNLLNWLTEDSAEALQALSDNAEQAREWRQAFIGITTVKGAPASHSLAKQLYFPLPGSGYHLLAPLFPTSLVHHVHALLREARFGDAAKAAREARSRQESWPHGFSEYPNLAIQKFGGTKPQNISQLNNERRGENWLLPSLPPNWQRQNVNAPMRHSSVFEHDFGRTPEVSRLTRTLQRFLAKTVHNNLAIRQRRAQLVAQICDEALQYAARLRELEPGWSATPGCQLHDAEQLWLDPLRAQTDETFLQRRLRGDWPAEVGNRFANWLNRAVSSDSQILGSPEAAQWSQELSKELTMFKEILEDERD
T1 sequence 2: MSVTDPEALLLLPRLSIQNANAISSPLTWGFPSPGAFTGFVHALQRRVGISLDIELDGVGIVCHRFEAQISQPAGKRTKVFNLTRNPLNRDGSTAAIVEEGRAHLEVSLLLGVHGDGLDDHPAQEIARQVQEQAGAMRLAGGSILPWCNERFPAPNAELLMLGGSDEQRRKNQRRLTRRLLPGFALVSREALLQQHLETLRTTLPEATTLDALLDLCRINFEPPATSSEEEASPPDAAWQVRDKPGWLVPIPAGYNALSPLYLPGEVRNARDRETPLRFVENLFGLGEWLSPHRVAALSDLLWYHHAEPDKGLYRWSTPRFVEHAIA
T1 sequence 3: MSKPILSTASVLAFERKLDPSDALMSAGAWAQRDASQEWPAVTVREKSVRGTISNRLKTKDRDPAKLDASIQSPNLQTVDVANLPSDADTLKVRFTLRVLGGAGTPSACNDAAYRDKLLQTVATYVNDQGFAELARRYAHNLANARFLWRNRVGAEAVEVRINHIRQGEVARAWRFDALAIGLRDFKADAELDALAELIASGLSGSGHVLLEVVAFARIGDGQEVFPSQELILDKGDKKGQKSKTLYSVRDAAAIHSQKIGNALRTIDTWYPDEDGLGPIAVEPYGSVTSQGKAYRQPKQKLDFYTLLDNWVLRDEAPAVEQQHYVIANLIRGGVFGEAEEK
T1 sequence 4: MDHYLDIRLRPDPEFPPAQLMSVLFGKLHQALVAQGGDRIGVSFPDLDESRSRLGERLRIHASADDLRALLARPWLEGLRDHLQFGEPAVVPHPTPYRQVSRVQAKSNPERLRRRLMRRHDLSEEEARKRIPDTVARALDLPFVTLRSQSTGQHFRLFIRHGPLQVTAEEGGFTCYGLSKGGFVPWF
The data set is described as follows: EMSA; crRNA-loaded complex; 200 nM DNA; 1 mM EDTA; 50 mM HEPES-Na pH 7.0, 50 mM NaCl, 1 mM DTT, 1 mM EDTA, 10 IU RNase inhibitor, 200 nM dsDNA, 37 C 30 min; non-denaturing TBE-PAGE, GelRed stain. Conditions: protein: recombinant; copies: 1;1;6;1; blunt. For orientation: Mobility shift assays separate free from complexed probe on a gel.

B1: type I-F EMSA target dsDNA (dsDNA)
DNA 1: CTATCGAAGCAATACAGGTAGACGCGGACATCAAGCCCGCCGTGAAGGTGCAGCTTCTC
DNA 2: GAGAAGCTGCACCTTCACGGCGGGCTTGATGTCCGCGTCTACCTGTATTGCTTCGATAG
On to B1, for which the binding result is “binds”.
